Source: patent CN117551199A (HANGZHOU RONGGU BIOTECHNOLOGY CO LTD, dated 2024)

target: T1, CLDN18.2 (Claudin18.2) expressed on cells (UniProt P56856-2 1-261); assay: flow cytometry on K562-CLDN18.2 cells, anti-Myc-Tag detection
T1 construct: whole, on cells; also called K562-CLDN18.2
T1 sequence (looked up): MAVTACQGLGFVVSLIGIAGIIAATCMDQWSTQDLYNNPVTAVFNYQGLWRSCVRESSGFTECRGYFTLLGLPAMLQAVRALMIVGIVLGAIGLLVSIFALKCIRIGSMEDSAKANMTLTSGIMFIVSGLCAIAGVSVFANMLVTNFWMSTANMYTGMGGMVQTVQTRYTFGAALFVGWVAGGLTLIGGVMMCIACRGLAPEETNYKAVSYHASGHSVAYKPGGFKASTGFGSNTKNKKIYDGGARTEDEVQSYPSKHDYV

Binder	binding result
Claudin18.2纳米抗体 11C (VHH, Bactrian camel VHH, made in a cell-free system and purified on His beads; detected through a Myc tag; also called Claudin18.2nb; not shown: N-terminal tag of the cell-free construct (8His-GSG and vector-derived residues, known only from primer DNA); amino acid; C-terminal Myc tag (detected with anti-Myc-Tag 9B11)) VHH: DVQLQESGGGSVQAGGSLRLSCAASGAIYMRNYMAWFRQVPGKEREGVAGISASSGRTYYDDSVKGRFTISQDNAKNTVYLQMNSLKPEDTAMYFCAADPFQVMIDTMRYWGQGTQVTVSS	binds
Claudin18.2纳米抗体 12B (VHH, Bactrian camel VHH, made in a cell-free system and purified on His beads; detected through a Myc tag; also called Claudin18.2nb; not shown: N-terminal tag of the cell-free construct (8His-GSG and vector-derived residues, known only from primer DNA); amino acid; C-terminal Myc tag (detected with anti-Myc antibody)) VHH: EVQLVESGGGSVQAGGSLRLSCAVSGYTYNLKYMGWFRQAPGKEREPVAFIYLGGDNQYYAPSVKDRFTISQDNAKNTVYLQMNSLKPDDTAMYYCAATTALLFLAQTSSWNYWGQGTQVTVSS	binds
Claudin18.2纳米抗体 10B (VHH, Bactrian camel VHH, made in a cell-free system and purified on His beads; detected through a Myc tag; also called Claudin18.2nb; not shown: N-terminal tag of the cell-free construct (8His-GSG and vector-derived residues, known only from primer DNA); amino acid; C-terminal Myc tag (detected with anti-Myc-Tag 9B11)) VHH: EVQLVESGGGSVQAGGSLRLSCAASEQTYNRYCMGWFRQAPGKEREGVADINWRGIPNYSDSVKGRFTISQDHAKNTLYLQMNSLKPEDTAMYYCAARRGLPVVGCYDEYNIWGQGTQVTVSS	binds
Claudin18.2纳米抗体 2F (VHH, Bactrian camel VHH, made in a cell-free system and purified on His beads; detected through a Myc tag; also called Claudin18.2nb; not shown: N-terminal tag of the cell-free construct (8His-GSG and vector-derived residues, known only from primer DNA); amino acid; C-terminal Myc tag (detected with anti-Myc-Tag 9B11)) VHH: QVQLVESGGGSVQAGGSLRLSCAGSGYVYPYYCMGWFRQAPGKERERVASIDRAGSQSYADSVKGRFTISKDNAKNTLYLQMGSLEPEDTAMYYCATDLGDGLWYSGCGTYRYWGQGTQVTVSS	binds
